# Laboratory results from publication PMC6449425, “Sterol Regulatory Element-Binding Protein (Sre1) Promotes the Synthesis of Carotenoids and Sterols in Xanthophyllomyces dendrorhous”.
# T1: Sre1 bHLH DNA-binding domain (UniProt A0A5B8KSW3 349-477)
# T1 sequence: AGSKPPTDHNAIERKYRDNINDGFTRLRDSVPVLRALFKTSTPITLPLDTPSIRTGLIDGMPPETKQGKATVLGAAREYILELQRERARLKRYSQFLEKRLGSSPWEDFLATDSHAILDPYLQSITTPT
# Experiments:
# [1] = target: T1, Sre1 bHLH DNA-binding domain; test: EMSA; 1.7 nM protein, 0.5 nM probe; single (fast) shifted band; 50 mM Hepes-KOH pH 7.5, 100 mM KCl, 5 mM MgCl2, 1 mM DTT, 20% glycerol, 0.8 mg/ml BSA, 0.3 mg/ml poly(dI-dC), 22°C 30 min; gel 0.5x TBE 4°C; settings: protein: recombinant; tags: His-tag (pET-TEV, TEV site); chain copies: 2; label: 3' biotin; blunt
# [2] = target: T1, Sre1 bHLH DNA-binding domain; test: EMSA; 1.7 nM protein, 0.5 nM probe; two shifted bands; 50 mM Hepes-KOH pH 7.5, 100 mM KCl, 5 mM MgCl2, 1 mM DTT, 20% glycerol, 0.8 mg/ml BSA, 0.3 mg/ml poly(dI-dC), 22°C 30 min; gel 0.5x TBE 4°C; settings: protein: recombinant; tags: His-tag (pET-TEV, TEV site); chain copies: 2; blunt
# [3] = target: T1, Sre1 bHLH DNA-binding domain; test: EMSA; 1.7 nM protein, 0.5 nM probe; no shift; 50 mM Hepes-KOH pH 7.5, 100 mM KCl, 5 mM MgCl2, 1 mM DTT, 20% glycerol, 0.8 mg/ml BSA, 0.3 mg/ml poly(dI-dC), 22°C 30 min; gel 0.5x TBE 4°C; settings: protein: recombinant; tags: His-tag (pET-TEV, TEV site); chain copies: 2; blunt
Binder,binding result [1],other results
"SRE1+SRE2* (probe C, by order) (dsDNA) DNA 1: CCATCGTCACTCTCGTCTCCTGACCCGTTGGGGCTATAATTCATTTTACGTGACTCCACT DNA 2: AGTGGAGTCACGTAAAATGAATTATAGCCCCAACGGGTCAGGAGACGAGAGTGACGATGG",binds,
"SRE1*+SRE2 (probe B, by order) (dsDNA) DNA 1: CCATCGTCACTCTTTATTCTTTTTCCGTTGGGGCTATGTAACACCACACGTGACTCCACT DNA 2: AGTGGAGTCACGTGTGGTGTTACATAGCCCCAACGGAAAAAGAATAAAGAGTGACGATGG",binds,
probe A (HMGS SRE1+SRE2) (dsDNA) DNA 1: CCATCGTCACTCTCGTCTCCTGACCCGTTGGGGCTATGTAACACCACACGTGACTCCACT DNA 2: AGTGGAGTCACGTGTGGTGTTACATAGCCCCAACGGGTCAGGAGACGAGAGTGACGATGG,,binding result [2]: binds
probe D (SRE1*+SRE2*) (dsDNA) DNA 1: CCATCGTCACTCTTTATTCTTTTTCCGTTGGGGCTATAATTCATTTTACGTGACTCCACT DNA 2: AGTGGAGTCACGTAAAATGAATTATAGCCCCAACGGAAAAAGAATAAAGAGTGACGATGG,,binding result [3]: no binding
